Source: paper PMC5389555

Columns and labels:
[1] = target: HA-GSK3β (wild-type) (UniProt P49841); experiment: co-IP; HEK293T transfected with HA-GSK3β-WT; anti-HA beads washed in TBS, then RNase A treatment (200 μg/ml) for 15 min at 4°C; blots for p72, DGCR8, Drosha and HA
[2] = target: HA-GSK3β-K85R (UniProt P49841); experiment: co-IP; HEK293T transfected with HA-GSK3β-WT, -S9A, -K85R or -K85A,K86A; lysates pre-cleared, EZView anti-HA agarose beads, 4°C overnight; blots for p72, DGCR8 and HA

percent reduction of co-precipitation after RNase A treatment [1]: > 50%
percent reduction of co-precipitation against GSK3β-WT [2]: 60%
Substance: p72 (DDX17) (endogenous) (natural protein)
